Data taken from the supplement of paper PMC12764529.
± gives the half width of the 95% confidence interval.

Columns and labels:
[1] = folding stability dG unfold (combined trypsin and chymotrypsin); higher = more stable
Method in brief: (§1)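 Sequencing followed digestion of designed mini-proteins with trypsin and chymotrypsin, each at 11 concentrations in threefold dilutions together with a no-protease condition. The mini-proteins were under 80 residues, had no cysteine, sat in a PA-tagged cDNA display construct, and were kept only if AlphaFold2 dimer inter-PAE was above 15. From the counts, Bayesian fitting gave K50, and unfolding free energy was derived against a sequence-predicted unfolded-state K50 and a shared folded-state K50, per protease or combined.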

[2] = folding stability dG unfold from trypsin proteolysis; higher = more stable
Method in brief: as §1

[3] = folding stability dG unfold from chymotrypsin proteolysis; higher = more stable
Method in brief: as §1

Row | Sequence | folding stability dG unfold [1] | folding stability dG unfold [2] | folding stability dG unfold [3]
1 | SAGGSAMSKDVLFENGARITKFFPGKNYVIIETSPENPELLKELGITVIKEGPNRIIVPAKDFLDESAGGSA [r15_984_TrMRF] | -0.864 ± 0.8 kcal/mol | -1.28 ± 0.74 kcal/mol | -0.821 ± 0.78 kcal/mol
2 | SAMKIAKVTYEPVKVDGKELLLFKVEIVHSETGEKEEKTFLTEDPEDFIENLLKHPDIDIVEILEFKEGSAG [r14_464_TrMRF] | 3.21 ± 0.083 kcal/mol | 2.32 ± 0.13 kcal/mol | 3.43 ± 0.066 kcal/mol
3 | DYKIKIPVARFPDGYWYIRAEIEDPDGETHEYEYPIPMPPGDTFDIDLPEDEPYKIKKIWIYHNGKPQPITS [r1_70_TrROS] | 1.16 ± 0.16 kcal/mol | 0.922 ± 0.11 kcal/mol | 1.36 ± 0.15 kcal/mol
4 | SAGGSAGGPFVLKFPDPKNMNKLQEAASDHGMNMNRNPEKGTHVINFGGNMLDELQELPGIEIVSAGGSAGG [r6_726_TrROS] | -0.769 ± 0.24 kcal/mol | -1.05 ± 0.15 kcal/mol | -1.1 ± 0.61 kcal/mol
5 | SISITLPDGTKTVSQSFNPEGNTITYTMEAPGKKITITLTEKVVGGSKEISVKITTDPVPLTPEEVAALKAS [r1_154_JUSTAS] | 1.86 ± 0.12 kcal/mol | 2.03 ± 0.13 kcal/mol | 1.94 ± 0.085 kcal/mol
6 | SPSRPTLVTTYTFDPSGVPTATTKEITPEEVEELEKKGWKKLSEDPEKGLITLEKKLPTSPQKIEVTILPSA [r9_5_JUSTAS] | 0.0748 ± 0.29 kcal/mol | -0.402 ± 0.2 kcal/mol | 0.0733 ± 0.27 kcal/mol
7 | SAGLDEEAYRNGLTVYLTSRLPGPDVLRPQWFDVTPEGDGFTYNVALPDGVPVNLEVLSRKVLSPEELLSAG [r14_427_JUSTAS] | 0.0205 ± 0.19 kcal/mol | -0.489 ± 0.51 kcal/mol | 0.149 ± 0.32 kcal/mol
8 | SAGGSAGGSSSSSVVTKPLPEEPLLVVTTTLPPSTPPGTTSTTTIIEPETGKVLETTDINIPSSAGGSAGGS [r12_564_JUSTAS] | 1.41 ± 0.11 kcal/mol | 1.92 ± 0.13 kcal/mol | 0.954 ± 0.1 kcal/mol
9 | SAGGSAGGSAGPYVVTIELPSGERIEVAVPAERLEEHVEELKPLVEPARITVRPVAPDALSAGGSAGGSAGG [r11_103_TrMRF] | 0.376 ± 0.053 kcal/mol | 0.143 ± 0.02 kcal/mol | 0.477 ± 0.018 kcal/mol
10 | SAKVVIIKVKSPEELKAAIEELKKKLPEGAVIYIVNEDGSVYKITFDKKTGKVKIEKVKSLEELKKLLKSAG [r14_913_TrROS_Hall] | 3.47 ± 0.14 kcal/mol | 2.31 ± 0.054 kcal/mol | 3.96 ± 0.086 kcal/mol
11 | SAGGSAGGSAIWIPSPEAADEIMDILAKKNGYKINIEPIGQDEDGGMVYEIEIVPPGQPLTSAGGSAGGSAG [r3_59_TrROS] | 0.484 ± 0.22 kcal/mol | 0.152 ± 0.066 kcal/mol | 0.397 ± 0.16 kcal/mol
12 | SAGGEVLIDTGPSPEEALYRAYEKGGEVPVIVLEPGSRVLHIFNVRFNPIPKKVEILDEYEIPILPELSAGG [r13_309_TrMRF] | 1.38 ± 0.11 kcal/mol | 1.18 ± 0.025 kcal/mol | 1.46 ± 0.087 kcal/mol
13 | SAGGSAGGSASVTVVPSPGPTTTVVTFSPDDTVTVTTHTVDPSAATSTPTTTTVSLSDPAAASAGGSAGGSA [r18_503_JUSTAS] | 1.73 ± 0.03 kcal/mol | 2.08 ± 0.044 kcal/mol | 1.44 ± 0.015 kcal/mol
14 | SAGGSAGGSAGGKELEIVLYDKETNVLVTAKVRMENGKLTITEVKVEKVKPPKLPPGVKPSAGGSAGGSAGG [r7_276_TrROS_Hall] | 2.14 ± 0.079 kcal/mol | 1.48 ± 0.06 kcal/mol | 2.44 ± 0.071 kcal/mol
15 | SALLEPLLLEVYIPATGEVITVPAKSLEEAEAIIAEVRADPTVASVRITLPDGTVVEVSFNVSPAAYLKSAG [r14_747_JUSTAS] | 0.304 ± 0.2 kcal/mol | 0.42 ± 0.12 kcal/mol | 0.13 ± 0.16 kcal/mol
16 | SMNIISIDIEPYRTGGEPWIYIPIQVPDENMPPSELEEIVEEIFEKLGLPINVKVHRDPNSGTIWIMIRLSA [r9_717_TrROS] | 2.75 ± 0.27 kcal/mol | 2.72 ± 0.15 kcal/mol | 2.79 ± 0.13 kcal/mol
17 | SPPFKIKEIKIEIFPNGTVKIEYRFPSSGHYVKFSIPVDPKKGRIPINMEIYNPDNGKVWEFSATIRIKKSA [r9_825_TrROS] | 4.69 ± 0.2 kcal/mol | 3.34 ± 0.17 kcal/mol | 4.86 ± 0.077 kcal/mol
18 | SAGGSAGGSAGGMAENLSPEQLRELAKELGLSEEDLEPGQVVRFRLPNGEVIEVRVEDESAGGSAGGSAGGS [r10_623_TrROS_Hall] | 0.913 ± 0.067 kcal/mol | 1.29 ± 0.033 kcal/mol | 0.372 ± 0.13 kcal/mol
19 | SAGGSAGGSAGGPLKLKVKLKLEFEVKDENGKTSKVELEVELEVELPEIVLDKNGKLLLSAGGSAGGSAGGS [r10_168_TrROS_Hall] | 2.95 ± 0.32 kcal/mol | 2.42 ± 0.091 kcal/mol | 3.39 ± 0.26 kcal/mol
20 | SAGGMLTLEEIKKAKPGEKLEIEVDGKIYLVEIKKNENGELTLTVKKVDKETGEIVEEKTISLEELLSAGGS [r16_763_TrROS_Hall] | 3.53 ± 0.07 kcal/mol | 2.91 ± 0.11 kcal/mol | 3.78 ± 0.077 kcal/mol
21 | SAGGYELELVFRFKLELKVGDGTLSFDLDLVIRIPLEPPAVPIGVEVKEDGSLVLTYPNGLKAEIPLSAGGS [r16_136_TrMRF] | 3.93 ± 0.087 kcal/mol | 3.32 ± 0.14 kcal/mol | 4.21 ± 0.06 kcal/mol

Row | Sequence | folding stability dG unfold [1] | folding stability dG unfold [2] | folding stability dG unfold [3]
22 | SAGGKMKLEVEILENEGTILVRFHFGDKVLEIPLPFPNLTPEDVKEAAEEIAKKLKEEYNIEEVEIESAGGS [r16_249_TrMRF] | 2.64 ± 0.28 kcal/mol | 2.33 ± 0.13 kcal/mol | 3.18 ± 0.23 kcal/mol
23 | SAGGSAGGSMKTYTLPNGLRVQLVRVDKKTKTITLKVFDKNGELVEEIEIKVDEPVELLVVYPSAGGSAGGS [r12_960_TrROS_Hall] | 2.45 ± 0.15 kcal/mol | 2.09 ± 0.061 kcal/mol | 2.69 ± 0.05 kcal/mol
24 | SAGASPGVRLTERSEEVIEVEPGEKEKLKEEIKKSEKKYPGGLTEKVEYEVDPNSNKVTITITTTTGLSAGG [r19_45_JUSTAS] | 0.383 ± 0.33 kcal/mol | -0.351 ± 0.23 kcal/mol | 0.664 ± 0.084 kcal/mol
25 | SAGGDNFKIEIQFFPDGHIFILIKWPNGDWILIPVPIEYPVPKRDPDGEVKEPGPVTHTHLFLIPANDSAGG [r13_236_TrROS] | 2.74 ± 0.16 kcal/mol | 1.88 ± 0.097 kcal/mol | 3.21 ± 0.046 kcal/mol
26 | SAMLPSIIIAKAKEAIEKSGKPVPVVIKIPVYKKENGPPVSLEKAKEIFEKLKEAFPDVPIIIELEEPESAG [r14_636_TrMRF] | 0.766 ± 0.048 kcal/mol | 0.875 ± 0.011 kcal/mol | 0.539 ± 0.034 kcal/mol
27 | SAGGSAGLPEAIAEAIARELQAEPGYELDVEAEVDPETGTLHIRARVRLPDDDTWFELEITVPLPASAGGSA [r15_464_TrMRF] | 2.93 ± 0.13 kcal/mol | 1.75 ± 0.084 kcal/mol | 3.22 ± 0.12 kcal/mol
28 | SAGGKKIEIKEENGSLVIKVDGYLVTIEPIDGKLVATVVKKDKKTKKWKIVETKILTLDEILELLKKSAGGS [r8_174_TrROS_Hall] | 2.66 ± 0.099 kcal/mol | 1.91 ± 0.057 kcal/mol | 3.034 ± 0.026 kcal/mol
29 | SAGGSAGALLVRFNDPELVRELIEALPFDALVERDPDDPNVLLVTLFTDGPLEEAVRAVREALGLESAGGSA [r15_118_TrMRF] | 2.98 ± 0.086 kcal/mol | 2.35 ± 0.039 kcal/mol | 3.25 ± 0.04 kcal/mol
30 | SAGGASTVEYEITLPLDPSGSVDPDTIRAAAEAIAAADPDFVDHRIEEITITRLPDGTVRFTVTISVPSAGG [r13_462_JUSTAS] | 2.53 ± 0.092 kcal/mol | 2.66 ± 0.11 kcal/mol | 2.46 ± 0.049 kcal/mol
31 | SAGGSAAKIDPKNGTITIYNKKTGKKIKIKIKNLPPGAKVTIEIKNGKITIKVDGKTIEINIKEIKSAGGSA [r15_864_TrROS_Hall] | 2.85 ± 0.29 kcal/mol | 2.1 ± 0.26 kcal/mol | 3.19 ± 0.19 kcal/mol
32 | SAGNPDKPPKPRTYTLEIEIKLPPGDPDQAKELAHEIAHEIRDLGIKDTEVEYDPGNGRVRISITFTFWSAG [r5_512_TrROS] | 3.27 ± 0.28 kcal/mol | 2.8 ± 0.076 kcal/mol | 3.49 ± 0.09 kcal/mol
33 | SAGGSAGGNPDLVITFPDGVKITVHPDGTITITRFIPGRDVPVGTRTITVPAPDGIPLEELLKYSAGGSAGG [r6_572_TrMRF] | 1.13 ± 0.13 kcal/mol | 0.887 ± 0.062 kcal/mol | 1.2 ± 0.059 kcal/mol
34 | SAGKKLFIKVKIRVKKKVKLKDGKTVEKEKELTLLIEAESEEEALEAAKKLAEELGLEIEKVEIFKAPSAGG [r19_176_TrROS_Hall] | 3.09 ± 0.27 kcal/mol | 2.41 ± 0.15 kcal/mol | 3.75 ± 0.16 kcal/mol
35 | SKKKKPPKKTVTVVVKVKPGEKITLTLKNKDGKEIAKVEFTKLPEDEPLYIATVTLKDGKLTIKVTKLKPSA [r9_238_TrROS_Hall] | 2.66 ± 0.34 kcal/mol | 2.1 ± 0.36 kcal/mol | 2.53 ± 0.13 kcal/mol
36 | SAGGSAGGSKKKKIEIIIVMSKEEAEKIAEELKKKYNIKEIKIKVIPLKKNSPKVKELLKKLKSAGGSAGGS [r12_649_TrROS_Hall] | 1.62 ± 0.37 kcal/mol | 1.03 ± 0.071 kcal/mol | 1.92 ± 0.12 kcal/mol
37 | SAGGSAGGSAGGGMKVKIETTKLPNGIWRVKVYDENGNFIGEKEFTSEEELEEFKKKVASSAGGSAGGSAGG [r7_476_JUSTAS] | 4.49 ± 0.19 kcal/mol | 2.98 ± 0.25 kcal/mol | 4.6 ± 0.14 kcal/mol
38 | SAGGSAGGSAPGSMLRIPVSEEELKKKGLTPEELAKEIRERYPELPESVVVEFPPDGNIVIVESAGGSAGGS [r12_50_JUSTAS] | 1 ± 0.16 kcal/mol | 0.906 ± 0.05 kcal/mol | 0.885 ± 0.056 kcal/mol
39 | SAGGSAGGSAGGSPVIIPDKGYLVVELEEEGLLVVYPLYPDGEIGPAFVRPVHPDVPVLSAGGSAGGSAGGS [r4_409_TrMRF] | 1.92 ± 0.072 kcal/mol | 2.61 ± 0.062 kcal/mol | 0.982 ± 0.039 kcal/mol
40 | SAGGKEYYLVKIEIEVTPENGKKETIEIELIVDGNPEEALKKAKEIAEYLEKKGFKVEIKKIEVYPASAGGS [r16_525_TrMRF] | 4.54 ± 0.15 kcal/mol | 3.9 ± 0.15 kcal/mol | 4.55 ± 0.073 kcal/mol
41 | SAGGSAGGSAMLIVGGADPEGAAEAAEEFIAAIEKAAEELGIPPEHIEIPVLIAEPGEAPGSAGGSAGGSAG [r3_249_TrMRF] | 0.834 ± 0.12 kcal/mol | 1.19 ± 0.056 kcal/mol | 0.289 ± 0.052 kcal/mol
42 | SAGKITLDGFTLDGEQTLTLTVEVPAPGGGTRTETFTATVTFDPETGTAHVPVTLPNGEELPFTFKVDASAG [r5_743_TrMRF] | 1.42 ± 0.075 kcal/mol | 1.18 ± 0.024 kcal/mol | 1.52 ± 0.09 kcal/mol
